Test results: PMC9976899, “Identification of a novel 5-aminomethyl-2-thiouridine methyltransferase in tRNA modification” (Nucleic Acids Research, 2023)

Biological target: the molecule itself
Test: SEC; oligomeric state of saMnmM in solution examined by size exclusion chromatography; conditions not given

B1: Staphylococcus aureus MnmM (5-aminomethyl-2-thiouridine methyltransferase, formerly YtqB) (enzyme)
chain: MKLERILPFSKTLIKQHITPESIVVDATCGNGNDTLFLAEQVPEGHVYGFDIQDLALENTRDKVKDFNHVSLIKDGHENIEHHINDAHKGHIDAAIFNLGYLPKGDKSIVTKPDTTIQAINSLLSLMSIEGIIVLVIYHGHSEGQIEKHALLDYLSTLDQKHAQVLQYQFLNQRNHAPFICAIEKIS
notes: MnmM (YtqB) of Staphylococcus aureus, UniProt Q2FXG9; gene codon-optimized and synthesized; Truncated constructs are stated only for the plant orthologs; A C-terminal His-tag (pLATE31) is stated expressly only for the B. subtilis gene; also called saMnmM; saYtqB; source: E. coli BL21(DE3), purified (HisTrap HP, SEC Superdex 75)
stoichiometry N: 2
